Assays:
[1] = system: ASS-negative SCLC cell line SK-LC-13; experiment: MTS proliferation assay, adherent cells; type: cell-based, human; conditions: 0 to 10 mIU ml^−1, 120 h
Method: (§1) To assess the anti-proliferative effect of ADI-PEG 20 on adherent cells, cells were plated a density of 2×10^3 cells per well in a tissue culture 96-microwell plate and allowed to adhere overnight. The following day, cells were treated with ADI-PEG 20 (DesigneRx Pharmaceuticals, Vacaville, Calif., USA, a subsidiary of Polaris Group, San Diego, Calif., USA) ranging from 0 to 10 mIU ml^−1. After incubation for 120 h, cell viability was determined using (3-(4,5-dimethylthiazol-2-yl)-5-(3-carboxymethoxyphenyl)-2-(4-sulfophenyl)-2H-tetrazolium) (MTS, CellTiter 96 AQueous One Solution, Promega, Madison, Wis., USA), according to the manufacturers protocol. Twenty microliters of MTS reagent was added to the appropriate control and assay wells before the plate was incubated for 2 h at 37° C. and absorbance read at 490 nm. Absolute absorbance for each treatment was determined by subtracting the background MTS absorbance, and the mean and standard deviation was calculated. The effect of the autophagy inhibitor chloroquine (Sigma) on cell proliferation was assessed using the MTS assay.

[2] = system: ASS-negative SCLC cell line SW1271; experiment: MTS proliferation assay, adherent cells; type: cell-based, human; conditions: 0 to 10 mIU ml^−1, 120 h
Method: as §1

[3] = system: non-adherent ASS-deficient cells; experiment: Total protein proliferation assay, non-adherent cells; type: cell-based; conditions: 0-10 mIU ml^−1, 120 h
Method: (§2) To assess the activity of ADI-PEG 20 in non-adherent cells, cells were plated at a density of 1×10^5 cells per well in a tissue culture 24-well plate. Additional media was then added containing ADI-PEG 20 for final concentrations ranging from 0-10 mIU ml^−1. To measure changes in proliferation following incubation with ADI-PEG 20 for 120 h, cells were collected, washed and lysed in RIPA buffer. Total protein for each treatment was then determined using the BSA protein assay as a measure of total cell number. All treatments were performed at least in triplicate.

[4] = system: non-adherent ASS-positive cells; experiment: as above; type: cell-based; conditions: 0-10 mIU ml^−1, 120 h
Method: as §2

SK-LC-13 = experiment: Western blot of autophagy-related protein LC3-II; type: cell-based, human; conditions: 24 hour incubation
Text: Following washing, the membranes were then probed with the appropriate secondary antibody before proteins were finally visualized using ECL reagent (Perkin-Elmer, Fremont Calif., USA).
An assay for the formation of the autophagy-related protein LC3-II assessed if treatment with ADI-PEG 20 was able to induce cellular autophagy in SCLC. […] Chloroquine is a known inhibitor of autophagy that disrupts normal lysosomal functions, and thus results in an increase in the cellular level of LC3-II.

SK-LC-13 xenografts [5] = experiment: Moderately sized SK-LC-13 SCLC xenografts in BALB/c-nude mice; type: in vivo
Method: (§3) The activity of ADI-PEG 20 was also assessed in mice bearing ASS-positive NCI-H69 SCLC xenografts. Small cell lung cancer xenografts were established in female BALB/c-nude mice, 3-4 weeks of age weighing ˜20 g (Charles River Labs, Wilmington, Mass., USA). To establish the tumors, 10×10^6 cells in media were mixed 1:1 with Matrigel High Concentration (BD Biosciences) and injected subcutaneously in the abdominal area of the mice. Tumor growth was regularly measured and tumor volume calculated using the formula (TV=(length×width^2)/2). All animal studies were approved by the MSKCC Institutional Animal Care and Use Committee. Mice were euthanized when tumors reached an approximate volume of 1,000 mm^3.
(§4) The anti-tumor efficacy of ADI-PEG 20 was simultaneously assessed in mice bearing either moderate or large SK-LC-13 SCLC xenografts. In the first study, treatment was initiated once tumors had reached an average size of 125 mm^3. In the large xenograft study, treatment was initiated once tumors had reached an average size of 500 mm^3. Arginine deiminase-PEG20 was administered at doses of 1, 2 and 5 IU per animal once every 5 days for 20 days (five doses). To assess the effect of sustained dosing, further groups (n=5) at all dose levels received continued administration of ADI-PEG 20 every 5 days until tumors progressed to the 1,000 mm^3 size limit. Additionally, the efficacy of ADI-PEG 20 was assessed in mice bearing ASS-positive NCI-H69 xenografts. Here, mice received five doses of 2 IU ADI-PEG 20 for 20 days once tumor had reached an average size of 150 mm^3. Arginine deiminase-PEG20 was administered by intraperitoneal injection in all studies. The specific activity of ADI-PEG 20 used in these studies is 9 IU mg^−1 of protein. Thus, 1 IU of ADI-PEG 20 per 20 g mouse is equivalent to 160 IU m^−2.
(§5) Efficacy of ADI-PEG 20 treatment in vivo was assessed by comparing means of control and treatment groups using unpaired two-tailed t-tests at the termination of control groups using GraphPad Prism (Version 5.0, GraphPad Software Inc., La Jolla, Calif., USA).

SK-LC-13 xenografts [6] = experiment: Large SK-LC-13 SCLC xenografts in BALB/c-nude mice; type: in vivo
Method: as §3, §4, §5

[7] = Specific activity of ADI-PEG 20; type: biochemical
Method: as §4

[8] = system: sarcoma cell lines with low expression of ASS; experiment: Sarcoma cell line panel treated with ADI-PEG 20; type: cell-based
[9] = system: ASS low expressing osteosarcoma cell line MNNG; experiment: Xenograft of osteosarcoma cell line MNNG in nude mice; type: in vivo; conditions: compared to PBS treated controls
[10] = in the mice; cited from earlier work

B1: ADI-PEG 20: arginine deiminase (ADI) formulated with PEG of 20,000 m.w. (protein)
chain: MSVFDSKFNGIHVYSEIGELETVLVHEPGREIDYITPARLDELLFSAILESHDARKEHQSFVKIMKDRGINVVELTDLVAETYDLASKAAKEEFIETFLEETVPVLTEANKEAVRAFLLSKPTHEMVEFMMSGITKYELGVESENELIVDPMPNLYFTRDPFASVGNGVTIHFMRYIVRRRETLFARFVFRNHPKLVKTPWYYDPAMKMSIEGGDVFIYNNETLVVGVSERTDLDTITLLAKNIKANKEVEFKRIVAINVPKWTNLMHLDTWLTMLDKNKFLYSPIANDVFKFWDYDLVNGGAEPQPQLNGLPLDKLLASIINKEPVLIPIGGAGATEMEIARETNFDGTNYLAIKPGLVIGYDRNEKTNAALKAAGITVLPFHGNQLSLGMGNARCMSMPLSRKDVKW
- proliferation [1]: clear dose-dependent decrease in proliferation
- proliferation [2]: clear dose-dependent decrease in proliferation
- proliferation [3]: relative decrease in proliferation
- proliferation [4]: almost total resistance
- cellular level of LC3-II (SK-LC-13): clear increase in the detectable cellular level of the protein
- tumor growth relative to control mice (SK-LC-13 xenografts [5]; 1, 2 and 5 IU per animal every 5 days, intraperitoneal): significant and dose-dependent reduction in tumor growth
- mean tumor volumes, short vs continued dosing (SK-LC-13 xenografts [5]; 1 IU (P=0.251)): not significantly different
- mean tumor volumes, short vs continued dosing (SK-LC-13 xenografts [5]; 2 IU (P=0.084)): not significantly different
- tumor size, continued dosing vs dosing for only 20 days (SK-LC-13 xenografts [5]; 5 IU every 5 days, at completion of the study (P=0.0063)): significantly smaller
- mean tumor volume of control mice compared with ADI-PEG 20-treated groups (SK-LC-13 xenografts [5]; day 33, regardless of dose or schedule (P>0.0001)): significantly larger
- tumor growth (SK-LC-13 xenografts [6]; 1, 2 and 5 IU, tumors 473.4±161.0 mm^3 at start): dose-dependent inhibition of tumor growth
- tumor volume relative to control mice (SK-LC-13 xenografts [6]; 1 IU, continued treatment, day 32 (P=0.007)): significantly reduce the tumor volume
- tumor volume, continued relative to short-course treatment (SK-LC-13 xenografts [6]; 1 IU, day 39): moderately significant (P=0.26) reduction in tumor volume
- tumor size relative to control mice (SK-LC-13 xenografts [6]; 1 IU, short-course, day 32 (P=0.07)): did not result in a statistical significant reduction
- tumor volume relative to untreated controls (SK-LC-13 xenografts [6]; 2 IU, continued (P=0.0007)): significant reduction of tumor volume
- tumor volume relative to untreated controls (SK-LC-13 xenografts [6]; 2 IU, short (P=0.004)): significant reduction of tumor volume
- responses, continued dosing relative to short-course (SK-LC-13 xenografts [6]; 2 and 5 IU): did not significantly improve responses
- tumor volume relative to untreated controls (SK-LC-13 xenografts [6]; 5 IU, continued (P=0.0001)): significant reduction of tumor volume
- tumor volume relative to untreated controls (SK-LC-13 xenografts [6]; 5 IU, short (P=0.0003)): significant reduction of tumor volume
- specific activity [7]: 9 IU mg^−1 of protein
- cell cycle and apoptosis ([8]; ASS expression low): cell cycle arrest but not apoptosis
- autophagy ([8]; sarcomas that lack ASS): induced autophagy
- IC50 ([8]; sensitive cell lines with low expression of ASS): 0.02 to 0.1 mg/L
- tumor growth rate [9]: significantly slower tumor growth rate
- half-life [10]: ~170 h

Reference: patent publication US9333268B2, “Methods of treatment with arginine deiminase” (Polaris Group, priority 2012, dated 2016)
